B1: DVD472 (bispecific antibody, IgG1)
VH: EVQLVESGGGLVQPGGSLRLSCAASGFTISDYWIHWVRQAPGKGLEWVAGITPAGGYTYYADSVKGRFTISADTSKNTAYLQMNSLRAEDTAVYYCARFVFFLPYAMDYWGQGTLVTVSSASTKGPSVFPLAPEVQLVESGGGLVQPGGSLRLSCAASGFTFTDNWISWVRQAPGKGLEWVGYISPNSGFTYYADSVKGRFTISADTSKNTAYLQMNSLRAEDTAVYYCARDNFGGYFDYWGQGTLVTVSS
VL: DIQMTQSPSSLSASVGDRVTITCRASQDVSTAVAWYQQKPGKAPKLLIYSASFLYSGVPSRFSGSGSGTDFTLTISSLQPEDFATYYCQQSYTTPPTFGQGTKVEIKRTVAAPSVFIFPPDIQMTQSPSSLSASVGDRVTITCRASQDVSTAVAWYQQKPGKAPKLLIYSASFLYSGVPSRFSGSGSGTDFTLTISSLQPEDFATTYYCQQSYTGTVTFGQGTKVEIKR
notes: HC linker long, LC linker long; also called DVD472H; DVD472L
B2: DVD466 (bispecific antibody, IgG1)
VH: EVQLVESGGGLVQPGGSLRLSCAASGFTISDYWIHWVRQAPGKGLEWVAGITPAGGYTYYADSVKGRFTISADTSKNTAYLQMNSLRAEDTAVYYCARFVFFLPYAMDYWGQGTLVTVSSASTKGPEVQLVESGGGLVQPGGSLRLSCAASGFTFTDNWISWVRQAPGKGLEWVGYISPNSGFTYYADSVKGRFTISADTSKNTAYLQMNSLRAEDTAVYYCARDNFGGYFDYWGQGTLVTVSS
VL: DIQMTQSPSSLSASVGDRVTITCRASQDVSTAVAWYQQKPGKAPKLLIYSASFLYSGVPSRFSGSGSGTDFTLTISSLQPEDFATYYCQQSYTTPPTFGQGTKVEIKRTVAAPDIQMTQSPSSLSASVGDRVTITCRASQDVSTAVAWYQQKPGKAPKLLIYSASFLYSGVPSRFSGSGSGTDFTLTISSLQPEDFATTYYCQQSYTGTVTFGQGTKVEIKR
notes: HC linker short, LC linker short; also called DVD466H; DVD466L
B3: DVD484 (bispecific antibody, IgG1)
VH: B2 VH
VL: B1 VL
notes: HC linker short, LC linker long; also called DVD484H; DVD484L
B4: DVD478 (bispecific antibody, IgG1)
VH: B1 VH
VL: B2 VL
notes: HC linker long, LC linker short; also called DVD478H; DVD478L
B5: DVD485 (bispecific antibody, IgG1)
VH: EVQLVESGGGLVQPGGSLRLSCAASGFTFTDNWISWVRQAPGKGLEWVGYISPNSGFTYYADSVKGRFTISADTSKNTAYLQMNSLRAEDTAVYYCARDNFGGYFDYWGQGTLVTVSSASTKGPEVQLVESGGGLVQPGGSLRLSCAASGFTINASWIHWVRQAPGKGLEWVGAIYPYSGYTNYADSVKGRFTISADTSKNTAYLQMNSLRAEDTAVYYCARWGHSTSPWAMDYWGQGTLVTVSS
VL: DIQMTQSPSSLSASVGDRVTITCRASQDVSTAVAWYQQKPGKAPKLLIYSASFLYSGVPSRFSGSGSGTDFTLTISSLQPEDFATTYYCQQSYTGTVTFGQGTKVEIKRTVAAPSVFIFPPDIQMTQSPSSLSASVGDRVTITCRASQVIRRSLAWYQQKPGKAPKLLIYAASNLASGVPSRFSGSGSGTDFTLTISSLQPEDFATYYCQQSNTSPLTFGQGTKVEIKR
notes: DVD-Ig, outer AB015 / inner AB071; HC linker short, LC linker long; also called DVD485H; DVD485L
B6: DVD486 (bispecific antibody, IgG1)
VH: EVQLVESGGGLVQPGGSLRLSCAASGFTINASWIHWVRQAPGKGLEWVGAIYPYSGYTNYADSVKGRFTISADTSKNTAYLQMNSLRAEDTAVYYCARWGHSTSPWAMDYWGQGTLVTVSSASTKGPEVQLVESGGGLVQPGGSLRLSCAASGFTFTDNWISWVRQAPGKGLEWVGYISPNSGFTYYADSVKGRFTISADTSKNTAYLQMNSLRAEDTAVYYCARDNFGGYFDYWGQGTLVTVSS
VL: DIQMTQSPSSLSASVGDRVTITCRASQVIRRSLAWYQQKPGKAPKLLIYAASNLASGVPSRFSGSGSGTDFTLTISSLQPEDFATYYCQQSNTSPLTFGQGTKVEIKRTVAAPSVFIFPPDIQMTQSPSSLSASVGDRVTITCRASQDVSTAVAWYQQKPGKAPKLLIYSASFLYSGVPSRFSGSGSGTDFTLTISSLQPEDFATTYYCQQSYTGTVTFGQGTKVEIKR
notes: DVD-Ig, outer AB071 / inner AB015; HC linker short, LC linker long; also called DVD486H; DVD486L
B7: DVD471 (bispecific antibody, IgG1)
VH: EVQLVESGGGLVQPGGSLRLSCAASGFTFTDNWISWVRQAPGKGLEWVGYISPNSGFTYYADSVKGRFTISADTSKNTAYLQMNSLRAEDTAVYYCARDNFGGYFDYWGQGTLVTVSSASTKGPSVFPLAPEVQLVESGGGLVQPGGSLRLSCAASGFTISDYWIHWVRQAPGKGLEWVAGITPAGGYTYYADSVKGRFTISADTSKNTAYLQMNSLRAEDTAVYYCARFVFFLPYAMDYWGQGTLVTVSS
VL: DIQMTQSPSSLSASVGDRVTITCRASQDVSTAVAWYQQKPGKAPKLLIYSASFLYSGVPSRFSGSGSGTDFTLTISSLQPEDFATTYYCQQSYTGTVTFGQGTKVEIKRTVAAPSVFIFPPDIQMTQSPSSLSASVGDRVTITCRASQDVSTAVAWYQQKPGKAPKLLIYSASFLYSGVPSRFSGSGSGTDFTLTISSLQPEDFATYYCQQSYTTPPTFGQGTKVEIKR
notes: HC linker long, LC linker long; also called DVD471H; DVD471L
B8: DVD465 (bispecific antibody, IgG1)
VH: EVQLVESGGGLVQPGGSLRLSCAASGFTFTDNWISWVRQAPGKGLEWVGYISPNSGFTYYADSVKGRFTISADTSKNTAYLQMNSLRAEDTAVYYCARDNFGGYFDYWGQGTLVTVSSASTKGPEVQLVESGGGLVQPGGSLRLSCAASGFTISDYWIHWVRQAPGKGLEWVAGITPAGGYTYYADSVKGRFTISADTSKNTAYLQMNSLRAEDTAVYYCARFVFFLPYAMDYWGQGTLVTVSS
VL: DIQMTQSPSSLSASVGDRVTITCRASQDVSTAVAWYQQKPGKAPKLLIYSASFLYSGVPSRFSGSGSGTDFTLTISSLQPEDFATTYYCQQSYTGTVTFGQGTKVEIKRTVAAPDIQMTQSPSSLSASVGDRVTITCRASQDVSTAVAWYQQKPGKAPKLLIYSASFLYSGVPSRFSGSGSGTDFTLTISSLQPEDFATYYCQQSYTTPPTFGQGTKVEIKR
notes: HC linker short, LC linker short; also called DVD465H; DVD465L
B9: DVD483 (bispecific antibody, IgG1)
VH: B8 VH
VL: B7 VL
notes: HC linker short, LC linker long; also called DVD483H; DVD483L
B10: DVD477 (bispecific antibody, IgG1)
VH: B7 VH
VL: B8 VL
notes: HC linker long, LC linker short; also called DVD477H; DVD477L
B11: DVD480 (bispecific antibody, IgG1)
VH: EVQLVESGGGLVQPGGSLRLSCAASGFTINASWIHWVRQAPGKGLEWVGAIYPYSGYTNYADSVKGRFTISADTSKNTAYLQMNSLRAEDTAVYYCARWGHSTSPWAMDYWGQGTLVTVSSASTKGPSVFPLAPEVQLVESGGGLVQPGGSLRLSCAASGFTFTDNWISWVRQAPGKGLEWVGYISPNSGFTYYADSVKGRFTISADTSKNTAYLQMNSLRAEDTAVYYCARDNFGGYFDYWGQGTLVTVSS
VL: DIQMTQSPSSLSASVGDRVTITCRASQVIRRSLAWYQQKPGKAPKLLIYAASNLASGVPSRFSGSGSGTDFTLTISSLQPEDFATYYCQQSNTSPLTFGQGTKVEIKRTVAAPDIQMTQSPSSLSASVGDRVTITCRASQDVSTAVAWYQQKPGKAPKLLIYSASFLYSGVPSRFSGSGSGTDFTLTISSLQPEDFATTYYCQQSYTGTVTFGQGTKVEIKR
notes: DVD-Ig, outer AB071 / inner AB015; HC linker long, LC linker short; also called DVD480H; DVD480L
B12: DVD479 (bispecific antibody, IgG1)
VH: EVQLVESGGGLVQPGGSLRLSCAASGFTFTDNWISWVRQAPGKGLEWVGYISPNSGFTYYADSVKGRFTISADTSKNTAYLQMNSLRAEDTAVYYCARDNFGGYFDYWGQGTLVTVSSASTKGPSVFPLAPEVQLVESGGGLVQPGGSLRLSCAASGFTINASWIHWVRQAPGKGLEWVGAIYPYSGYTNYADSVKGRFTISADTSKNTAYLQMNSLRAEDTAVYYCARWGHSTSPWAMDYWGQGTLVTVSS
VL: DIQMTQSPSSLSASVGDRVTITCRASQDVSTAVAWYQQKPGKAPKLLIYSASFLYSGVPSRFSGSGSGTDFTLTISSLQPEDFATTYYCQQSYTGTVTFGQGTKVEIKRTVAAPDIQMTQSPSSLSASVGDRVTITCRASQVIRRSLAWYQQKPGKAPKLLIYAASNLASGVPSRFSGSGSGTDFTLTISSLQPEDFATYYCQQSNTSPLTFGQGTKVEIKR
notes: DVD-Ig, outer AB015 / inner AB071; HC linker long, LC linker short; also called DVD479H; DVD479L

Target: VEGF (VEGF 1-165 aa, R&D Systems 293-VE-010) (UniProt P15692 27-191)
Sequence (P15692 other isoform, or with tags, fused parts or gaps limits assumed): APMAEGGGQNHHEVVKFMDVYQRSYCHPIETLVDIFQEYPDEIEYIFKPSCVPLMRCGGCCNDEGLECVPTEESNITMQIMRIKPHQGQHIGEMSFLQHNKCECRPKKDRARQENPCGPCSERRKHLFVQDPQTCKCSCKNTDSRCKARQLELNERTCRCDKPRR
Test: Direct bind ELISA, VEGF coated on plate;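 further: ELISA screening of antibodies for binding to the plate-coated target antigen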

| EC50 | Binder |
| --- | --- |
| 9.22 nM | B1 |
| 2.61 nM | B2 |
| 4.84 nM | B3 |
| 2.72 nM | B4 |
| 121 nM | B5 |
| 28 nM | B6 |
| 30.1 nM | B7 |
| 396 nM | B8 |
| 46.1 nM | B9 |
| 41.7 nM | B10 |
| 23 nM | B11 |
| 456 nM | B12 |

— US20100260668A1 (published 2010)
